Tested on: BL21*DE3 competent E. coli cells
Assay: Selection for glyphosate resistance on M63+ plates containing 150 mM glyphosate
Type: cell-based
Settings: E. coli clones expressing the variant, 150 mM glyphosate plates
Experimental: The mutagenized syngrg23 libraries were transformed into E. coli strain BL21*DE3 star (Invitrogen). Following transformation, individual colonies were plated on 1× M63 medium containing 150 mM glyphosate to select for clones that had retained enzymatic activity and growth tolerance.
Library ligations were transformed into BL21*DE3 competent E. coli cells (Invitrogen). The transformations were performed according to the manufacturer's instructions with the following modifications. After incubation for 1 hour at 37° C. in SOC medium, the cells were sedimented by centrifugation (5 minutes, 1000×g, 4° C.). The cells were washed with 1 ml M63+, centrifuged again, and the supernatant decanted. The cells were washed a second time with 1 ml M63+ and resuspended in 200 ul M63+.
The plates were incubated for 36 hours at 37° C.
Colonies identified on glyphosate plates were pinned into 96-well blocks containing LB medium and were grown to an O.D. of about 0.6. IPTG was then added (0.5 mM) and the blocks were incubated overnight at 20° C. to induce protein expression. Protein extracts were prepared from the cell pellets using POP culture reagent (Novagen) and Lysonase (Novagen), and the enzymatic activity in the crude lysates was measured after heating the extracts for 30 min at 37° C.

Molecule | glyphosate resistance (in words)
GRG23(L3P1.B20): GRG23 variant, SEQ ID NO:21; mutation at V206 (protein, GRG23(L3P1.B20), mutation at V206) METDRLVIPGSKSITNRALLLAAAAKGTSVLVRPLVSADTSAFKTAIQALGANVSADGDNWVVEGLGQAPHLDADIWCEDAGTVARFLPPFVAAGQGKFTVDGSEQLRRRPLRPLVDGIRHLGARVSSEQLPLTIEASGLAGGEYEIEAHQSSQFASGLIMAAPYARQGLRVRIPNPVSQPYLTMTLRMMRDFGLETSTDGATVSIPPGRYTARRYEIEPDASTASYFAAASAVSGRSFEFQGLGTDSIQGDTSFFNVLGRLGAEVHWAPNSVTISGPERLNGDIEVDMGEISDTFMTLAAIAPLADGPITITNIGHARLKESDRISAMETNLRTLGVQTDVGHDWMRIYPSTPHGGRVNCHRDHRIAMAFSILGLRVDGITLDDPQCVGKTFPGFFDYLGRLFPEKALTLPG | retained glyphosate resistance
GRG23(L3P1.023): GRG23 variant, SEQ ID NO:27; R5→H (protein, GRG23(L3P1.O23), R5→H) METDHLVIPGSKSITNRALLLAAAAKGTSVLVRPLVSADTSAFKTAIQALGANVSADGDNWVVEGLGQAPHLDADIWCEDAGTVARFLPPFVAAGQGKFTVDGSEQLRRRPLRPLVDGIRHLGARVSSEQLPLTIEASGLAGGEYEIEAHQSSQFASGLIMAAPYARQGLRVRIPNPVSQPYLTMTLRMMRDFGLETSTDGATVSVPPGRYTARRYEIEPDASTASYFAAASAVSGRSFEFQGLGTDSIQGDTSFFNVLGRLGAEVHWAPNSVTISGPERLNGDIEVDMGEISDTFMTLAAIAPLADGPITITNIGHARLKESDRISAMETNLRTLGVQTDVGHDWMRIYPSTPHGGRVNCHRDHRIAMAFSILGLRVDGITLDDPQCVGKTFPGFFDYLGRLFPEKALTLPG | retained glyphosate resistance
GRG23(L3P1.F18): GRG23 variant, SEQ ID NO:25; T274→I (protein, GRG23(L3P1.F18), T274→I) METDRLVIPGSKSITNRALLLAAAAKGTSVLVRPLVSADTSAFKTAIQALGANVSADGDNWVVEGLGQAPHLDADIWCEDAGTVARFLPPFVAAGQGKFTVDGSEQLRRRPLRPLVDGIRHLGARVSSEQLPLTIEASGLAGGEYEIEAHQSSQFASGLIMAAPYARQGLRVRIPNPVSQPYLTMTLRMMRDFGLETSTDGATVSVPPGRYTARRYEIEPDASTASYFAAASAVSGRSFEFQGLGTDSIQGDTSFFNVLGRLGAEVHWAPNSVIISGPERLNGDIEVDMGEISDTFMTLAAIAPLADGPITITNIGHARLKESDRISAMETNLRTLGVQTDVGHDWMRIYPSTPHGGRVNCHRDHRIAMAFSILGLRVDGITLDDPQCVGKTFPGFFDYLGRLFPEKALTLPG | retained glyphosate resistance
grg23(L3P1B3): GRG23 variant, SEQ ID NO:23; D75→H, E217→K (protein, GRG23(L3P1.B3), D75→H, E217→K) METDRLVIPGSKSITNRALLLAAAAKGTSVLVRPLVSADTSAFKTAIQALGANVSADGDNWVVEGLGQAPHLDAHIWCEDAGTVARFLPPFVAAGQGKFTVDGSEQLRRRPLRPLVDGIRHLGARVSSEQLPLTIEASGLAGGEYEIEAHQSSQFASGLIMAAPYARQGLRVRIPNPVSQPYLTMTLRMMRDFGLETSTDGATVSVPPGRYTARRYKIEPDASTASYFAAASAVSGRSFEFQGLGTDSIQGDTSFFNVLGRLGAEVHWAPNSVTISGPERLNGDIEVDMGEISDTFMTLAAIAPLADGPITITNIGHARLKESDRISAMETNLRTLGVQTDVGHDWMRIYPSTPHGGRVNCHRDHRIAMAFSILGLRVDGITLDDPQCVGKTFPGFFDYLGRLFPEKALTLPG | retained glyphosate resistance

From patent US8252981B2 (Athenix Corp., priority 2006, dated 2012)
